Assay results from patent publication US20060067886A1, “Gastrin receptor-avid peptide conjugates” (priority 1997, published 2006).

Assay: Biodistribution of radiometal-DOTA-BBN conjugates in CF1 normal mice
Conditions: 1 hour post-injection

For `CSCC[C@H](NC(=O)[C@H](CC(C)C)NC(=O)[C@H](Cc1cnc[nH]1)NC(=O)CNC(=O)[C@@H](NC(=O)[C@H](C)NC(=O)[C@H](Cc1c[nH]c2ccccc12)NC(=O)[C@H](CCC(N)=O)NC(=O)CCNC(=O)CN1CCN(CC(=O)O)CCN(CC(=O)O)CCN(CC(=O)O)CC1)C(C)C)C(N)=O` [111In-DOTA-β-Ala-BBN[7-14]NH2] [metal not drawn], the “Avg % ID, Heart” value was 0.01 ± 0.01 % ID, the “Avg % ID, L. Intestine” value was 0.90 ± 0.57 % ID and the “Avg % ID, Muscle” value was 0.01 ± 0.01 % ID. The “Avg % ID, Pancreas” value was 1.84 ± 0.35 % ID, the “Avg % ID, S. Intestine” value was 1.57 ± 0.65 % ID and the “Avg % ID, Spleen” value was 0.05 ± 0.00 % ID. The “Avg % ID/gm, Heart” value was 0.06 ± 0.04 % ID/gm, the “Avg % ID/gm, L. Intestine” value was 1.10 ± 0.78 % ID/gm and the “Avg % ID/gm, Muscle” value was 0.03 ± 0.02 % ID/gm. The “Avg % ID/gm, Pancreas” value was 4.92 ± 0.37 % ID/gm, the “Avg % ID/gm, S. Intestine” value was 1.01 ± 0.37 % ID/gm and the “Avg % ID/gm, Spleen” value was 0.37 ± 0.06 % ID/gm.

With `CSCC[C@H](NC(=O)[C@H](CC(C)C)NC(=O)[C@H](Cc1c[nH]cn1)NC(=O)CNC(=O)[C@@H](NC(=O)[C@H](C)NC(=O)[C@H](Cc1c[nH]c2ccccc12)NC(=O)[C@H](CCC(N)=O)NC(=O)CCCCCCCCCCNC(=O)CN1CCN(CC(=O)O)CCN(CC(=O)O)CCN(CC(=O)O)CC1)C(C)C)C(N)=O` [177Lu-DOTA-11-Aun-BBN[7-14]NH2] [metal not drawn] the “Avg % ID, Blood” value was 0.47 ± 0.54 % ID, the “Avg % ID, Carcass” value was 6.69 ± 2.48 % ID and the “Avg % ID, Heart” value was 0.19 ± 0.29 % ID. For the same compound, the “Avg % ID, Kidney” value was 1.76 ± 0.25 % ID, the “Avg % ID, L. Intestine” value was 5.03 ± 0.46 % ID and the “Avg % ID, Liver” value was 2.26 ± 0.46 % ID. The “Avg % ID, Lung” value was 0.17 ± 0.22 % ID, the “Avg % ID, Muscle” value was 0.11 ± 0.18 % ID and the “Avg % ID, Pancreas” value was 6.89 ± 1.20 % ID. The “Avg % ID, S. Intestine” value was 17.10 ± 3.60 % ID, the “Avg % ID, Spleen” value was 0.24 ± 0.24 % ID and the “Avg % ID, Stomach” value was 0.64 ± 0.35 % ID. The “Avg % ID/gm, Blood” value was 0.78 ± 1.10 % ID/gm, the “Avg % ID/gm, Heart” value was 1.56 ± 2.40 % ID/gm and the “Avg % ID/gm, Kidney” value was 4.97 ± 0.61 % ID/gm. The “Avg % ID/gm, L. Intestine” value was 6.31 ± 0.86 % ID/gm, the “Avg % ID/gm, Liver” value was 1.65 ± 0.29 % ID/gm and the “Avg % ID/gm, Lung” value was 0.73 ± 0.81 % ID/gm. For the same compound, the “Avg % ID/gm, Muscle” value was 0.75 ± 1.12 % ID/gm, the “Avg % ID/gm, Pancreas” value was 35.48 ± 2.39 % ID/gm and the “Avg % ID/gm, S. Intestine” value was 12.58 ± 1.73 % ID/gm. The “Avg % ID/gm, Spleen” value was 1.78 ± 1.87 % ID/gm and the “Avg % ID/gm, Stomach” value was 1.82 ± 1.12 % ID/gm.

In the case of `CSCC[C@H](NC(=O)[C@H](CC(C)C)NC(=O)[C@H](Cc1c[nH]cn1)NC(=O)CNC(=O)[C@@H](NC(=O)[C@H](C)NC(=O)[C@H](Cc1c[nH]c2ccccc12)NC(=O)[C@H](CCC(N)=O)NC(=O)CCCCCCCCCCNC(=O)CN1CCN(CC(=O)O)CCN(CC(=O)O)CCN(CC(=O)O)CC1)C(C)C)C(N)=O` [111In-DOTA-11-Aun-BBN[7-14]NH2] [metal not drawn], the “Avg % ID, Heart” value is reported as 0.02 ± 0.01 % ID, the “Avg % ID, Lung” value is reported as 0.08 ± 0.01 % ID and the “Avg % ID, Muscle” value is reported as 0.02 ± 0.01 % ID. For the same compound, the “Avg % ID/gm, Blood” value was 0.34 ± 0.08 % ID/gm, the “Avg % ID/gm, Heart” value was 0.13 ± 0.04 % ID/gm and the “Avg % ID/gm, Kidney” value was 2.06 ± 0.31 % ID/gm. For the same compound, the “Avg % ID/gm, Lung” value was 0.26 ± 0.05 % ID/gm and the “Avg % ID/gm, Muscle” value was 0.09 ± 0.03 % ID/gm.
